US20190375846A1 (ULTRAHUMAN ONE, published 2019)
Residue numbers refer to the chain shown, from its start.

T1: human GITR-Fc (human, UniProt Q9Y5U5 26-161)
T1 construct: Recombinant GITR-Fc; also called hGITR-Fc; hGITR; not shown: Fc part
T1 sequence (looked up): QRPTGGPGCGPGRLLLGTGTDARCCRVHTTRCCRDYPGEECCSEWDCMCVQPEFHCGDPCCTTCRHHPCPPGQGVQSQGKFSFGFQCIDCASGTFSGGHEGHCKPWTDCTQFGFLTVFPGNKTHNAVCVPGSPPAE

T2: hDR6-Fc (human, UniProt O75509)
T2 construct: recombinant Fc fusion; Member of the panel m8
T2 sequence (fusion chain, looked up): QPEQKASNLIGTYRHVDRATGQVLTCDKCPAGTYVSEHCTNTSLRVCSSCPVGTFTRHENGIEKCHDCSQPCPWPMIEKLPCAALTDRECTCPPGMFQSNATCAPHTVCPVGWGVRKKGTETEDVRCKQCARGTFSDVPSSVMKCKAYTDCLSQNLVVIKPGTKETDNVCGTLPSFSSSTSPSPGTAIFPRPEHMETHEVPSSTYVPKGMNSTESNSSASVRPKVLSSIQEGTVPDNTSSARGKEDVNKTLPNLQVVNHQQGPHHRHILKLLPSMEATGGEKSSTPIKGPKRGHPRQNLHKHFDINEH

T3: hVCAM-1 (human, UniProt P19320)
T3 construct: purified recombinant protein; Member of the panel m8; the axis also carries a separate label hVCAM-Fc (f6)
T3 sequence (looked up): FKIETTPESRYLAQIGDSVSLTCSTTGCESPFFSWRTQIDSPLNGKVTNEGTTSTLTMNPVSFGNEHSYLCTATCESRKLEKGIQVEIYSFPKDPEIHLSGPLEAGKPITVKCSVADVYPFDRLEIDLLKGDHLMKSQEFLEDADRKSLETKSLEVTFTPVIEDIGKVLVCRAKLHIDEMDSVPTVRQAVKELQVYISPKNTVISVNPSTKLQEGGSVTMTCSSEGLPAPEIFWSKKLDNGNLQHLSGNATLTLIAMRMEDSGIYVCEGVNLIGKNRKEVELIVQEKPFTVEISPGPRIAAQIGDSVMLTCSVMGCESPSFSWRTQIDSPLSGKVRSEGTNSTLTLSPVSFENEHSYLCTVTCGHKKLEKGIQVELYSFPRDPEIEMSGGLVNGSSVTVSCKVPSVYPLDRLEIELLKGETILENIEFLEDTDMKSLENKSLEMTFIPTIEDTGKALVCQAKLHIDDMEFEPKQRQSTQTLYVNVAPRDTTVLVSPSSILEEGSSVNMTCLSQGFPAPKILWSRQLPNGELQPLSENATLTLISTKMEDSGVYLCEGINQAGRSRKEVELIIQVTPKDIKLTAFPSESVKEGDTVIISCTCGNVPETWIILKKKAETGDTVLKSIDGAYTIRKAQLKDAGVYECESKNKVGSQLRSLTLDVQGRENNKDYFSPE

T4: human GITR at the cell surface (human, UniProt Q9Y5U5 26-241)
T4 construct: whole, on cells; The cell type is named in the assay field of each row; also called human GITR+ cells; CHO-K1 human GITR+ cells
T4 sequence (looked up): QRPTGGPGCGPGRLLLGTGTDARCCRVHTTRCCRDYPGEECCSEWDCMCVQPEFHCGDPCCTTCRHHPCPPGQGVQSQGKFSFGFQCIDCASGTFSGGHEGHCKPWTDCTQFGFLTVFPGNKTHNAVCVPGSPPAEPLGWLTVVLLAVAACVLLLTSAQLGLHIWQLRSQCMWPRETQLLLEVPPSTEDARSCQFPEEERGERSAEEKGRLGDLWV

B1: D-A6 IgG1 (antibody, V domains shown)
VH: EVQLVESGGGLVQPGGSLRLSCAASGFSLSTSGYGVGWVRQAPGKGLEWLAHIWWDDDKYYVDSVKGRFTISRDNAKNSLYLQMNSLRAEDTAVYYCARTRQYFPFAYWGQGTLVTVSS
VL: EIVLTQSPATLSLSPGERATLSCRASQSVGSNLAWYQQKPGQAPRLLIYSASYRYTGIPARFSGSGSGTDFTLTISSLEPEDFAVYYCQQYSTDPLTFGGGTKVEIK
notes: Human IgG1
B2: G-G10 IgG1 (antibody, V domains shown)
VH: B1 VH with S32F
VL: B1 VL with S31T, S50Y, T93N
notes: Human IgG1
B3: I-C2 IgG1 (antibody, V domains shown)
VH: B1 VH with Q102L
VL: B1 VL with S28N, Y53N, T56S
notes: Human IgG1
B4: VH3/VL2 IgG1 (antibody, V domains shown)
VH: B1 VH with Y34M, Q102R
VL: B1 VL with S28N, S31T, L33V, T56S, S92N
notes: Human IgG1; template of the mutagenesis library; also called G-VH3/VL2; VH3 family
B5: chimeric anti-GITR IgG1 mVH/mVL (6C8 murine v-domains) (antibody, V domains shown)
VH: QVTLKESGPGILKPSQTLSLTCSFSGFSLSTSGMGVGWIRQPSGKGLEWLAHIWWDDDKYYNPSLKSQLTISKDTSRNQVFLKITSVDTADAATYYCARTRRYFPFAYWGQGTLVTVSS
VL: DIVMTQSQKFMSTSVGDRVSVTCKASQNVGTNVAWYQQKPGQSPKALIYSASYRYSGVPDRFTGSGSGTDFTLTINNVHSEDLAEYFCQQYNTDPLTFGAGTKLEIK
notes: Full-length human IgG1, kappa; also called GITR-mVH/mVL; chimeric IgG

Key:
human GITR-Fc = biological target: T1, human GITR-Fc; test: direct ELISA, IgG at 1 µg/ml
Description: (§1) Off-target homologue binding risk for mVH/mVL (FIG. 8A), VH3/VL2 (FIG. 8B) and lead engineered IgG clones G-G10 (FIG. 8C), I-C2 (FIG. 8D) and D-A6 (FIG. 8E) was examined by direct ELISA on GITR-Fc orthologs and a panel of 13 human TNFRSF and immunoglobulin superfamily proteins (as labelled on each X-axis). Binding to human, cyno and murine GITR-Fcs (h/c/mGITR-Fc) was performed at an IgG concentration of 1 μg/ml. Binding to all other proteins was performed at an IgG concentration of 10 μg/ml.
(§2) Anti-GITR antibodies were tested for polyreactivity by ELISA. Purified, recombinant, target and non-target antigens were coated in 96-well Nunc maxisorp plates at 100 ng per well in carbonate buffer, at 4° C. overnight. Plates were then washed 3× with PBS, blocked with 1% BSA in PBS, then washed 3× with PBS-Tween20. A dilution series of primary antibodies was then applied, plates were washed 3× with PBS-Tween20 followed by application of goat anti-human kappa chain-HRP 1:4,000 secondary antibody. Wells were then washed 3× with PBS-Tween20 and 2× with PBS, 100 μl TMB peroxidase substrate was added per well, the was reaction stopped by adding 100 μl 2M H₂SO₄ and absorbances were read at 450 nm. Anti-GITR antibodies were also tested for binding specificity by flow cytometry. HuT78 cells were activated by incubation with anti-CD3/anti-CD28 beads for 3 days. Naïve cells were incubated in media alone. At the end of the incubation the cells were harvested and the beads removed from the activated cells using a magnet. Cells were incubated with viability dye and then stained with anti-GITR antibodies at 4° C. […] Binding of VH1/VI1 and D-A6 IgG1 proteins were detected by subsequent incubation with a PE labelled goat anti-human IgG. Cells were fixed with 4% PFA before being stored in PBS at 4° C. overnight. Cells were analysed the next day using a BD Fortessa flow cytometer running Diva software. Analysis was performed using FlowJo software.

[1] = biological target: T5, cynomolgus monkey GITR-Fc (cynomolgus monkey (Macaca fascicularis)); test: direct ELISA, IgG at 1 µg/ml
T5 construct: also called cyno GITR-Fc; cGITR-Fc
Description: as §1, §2

hICAM-1-Fc = biological target: T6, hICAM-1-Fc (human, UniProt P05362); test: direct ELISA on coated protein, IgG at 10 µg/ml, OD 450 nm
T6 construct: recombinant Fc fusion; Member of the panel m8
Description: as §1, §2

hDR6-Fc = biological target: T2, hDR6-Fc; test: as above
Description: as §1, §2

hVCAM-1 = biological target: T3, hVCAM-1; test: as above
Description: as §1, §2

hCD4 = biological target: T7, hCD4 (human, UniProt P01730); test: as above
T7 construct: purified recombinant protein; Member of the panel m8
Description: as §1, §2

[2] = biological target: T4, human GITR at the cell surface; test: flow cytometry, human GITR-transfected murine blastoma cells, 10,000-13.7 ng/ml
Description: Concentration-dependent binding to GITR at the cell surface was analysed using flow cytometry.

T6 sequence (P05362 28-480 limits assumed): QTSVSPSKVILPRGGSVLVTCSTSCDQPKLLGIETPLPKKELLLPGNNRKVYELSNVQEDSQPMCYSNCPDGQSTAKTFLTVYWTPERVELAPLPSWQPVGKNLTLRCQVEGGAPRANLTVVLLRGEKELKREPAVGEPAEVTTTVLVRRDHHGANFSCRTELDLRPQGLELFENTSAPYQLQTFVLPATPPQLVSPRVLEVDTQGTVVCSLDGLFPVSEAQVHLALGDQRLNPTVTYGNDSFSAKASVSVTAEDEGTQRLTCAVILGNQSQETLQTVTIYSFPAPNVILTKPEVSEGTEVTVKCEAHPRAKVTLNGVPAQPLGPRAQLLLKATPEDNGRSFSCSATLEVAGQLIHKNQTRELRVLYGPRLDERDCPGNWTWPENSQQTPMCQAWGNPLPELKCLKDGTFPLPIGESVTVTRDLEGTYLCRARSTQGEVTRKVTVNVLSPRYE

Row | Binder | OD450 nm (human GITR-Fc) | OD450 nm [1] | binding result (hICAM-1-Fc) | binding result (hDR6-Fc) | binding result (hVCAM-1) | binding result (hCD4) | concentration at maximum MFI [2]
1 | B1 | > 3 OD450 nm | > 1 OD450 nm | no binding (tested: 10 µg/ml) | no binding (tested: 10 µg/ml) | no binding (tested: 10 µg/ml) | no binding (tested: 10 µg/ml) | ~1110 ng/mL
2 | B2 | > 3 OD450 nm | > 1 OD450 nm | no binding (tested: 10 µg/ml) | no binding (tested: 10 µg/ml) | no binding (tested: 10 µg/ml) | no binding (tested: 10 µg/ml) | ~1110 ng/mL
3 | B3 | > 3 OD450 nm | > 1 OD450 nm | no binding (tested: 10 µg/ml) | no binding (tested: 10 µg/ml) | no binding (tested: 10 µg/ml) | no binding (tested: 10 µg/ml) | ~1110 ng/mL
4 | B4 | > 3 OD450 nm | > 1 OD450 nm | no binding (tested: 10 µg/ml) | no binding (tested: 10 µg/ml) | no binding (tested: 10 µg/ml) | no binding (tested: 10 µg/ml) | ~1110 ng/mL
5 | B5 | > 3 OD450 nm | > 1 OD450 nm | no binding (tested: 10 µg/ml) | no binding (tested: 10 µg/ml) | no binding (tested: 10 µg/ml) | no binding (tested: 10 µg/ml) | ~1110 ng/mL
